test: soluble on expression in E. coli; label from the status in PepcDB or PDB records

Question: With “MGSSHHHHHHSSGLVPRGSHADYEVVHDTFEVNFDGWCNLGVDTYLTAVENEGNNGTRGMMVINRSSASDGAYSEKGFYLDGGVEYKYSVFVKHNGTGTETFKLSVSYLDSETEEENKEVIATKDVVAGEWTEISAKYKAPKTAVNITLSITTDSTVDFIFDDVTITRKGMAEANTVYAANAVLKDMYANYFRVGSVLNSGTVNNSSIKALILREFNSITCENEMKPDATLVQSGSTNTNIRVSLNRAASILNFCAQNNIAVRGHTLVWHSQTPQWFFKDNFQDNGNWVSQSVMDQRLESYIKNMFAEIQRQYPSLNLYAYDVVNAAVSDDANRTRYYGGAREPGYGNGRSPWVQIYGDNKFIEKAFTYARKYAPANCKLYYNDYNEYWDHKRDCIASICANLYNKGLLDGVGMQSHINADMNGFSGIQNYKAALQKYINIGCDVQITELDISTENGKFSLQQQADKYKAVFQAAVDINRTSSKGKVTAVCVWGPNDANTWLGSQNAPLLFNANNQPKPAYNAVASIIPQSEWGDGNNPA” as the sequence, how does the “soluble on expression in E. coli” value read?
Answer: The value was “soluble”.

Question: Which “soluble on expression in E. coli” value does the source give for “MVDIANEVGASESAIPPLKMLLLEGARQAALEAGLQNNSGILADTTFGQQALNDVTGQGWWIGRPVEMPGSYPLKLEHGDIGSQLVSWPQEHVVKCLVFYHPLDAESVRLEQEALIDEVYRACCQSGHDLLLEVILPRDAADQNEQYYPQIVERFYQLGILPDWWKLPPLSPDRWREISQHIEHYDPECRGILILGLDAPESELKSGFAAAADMPWVKGFAVGRTIFGEPSRQWLGGQLNDEQLIATVKQKYRMLIDYWREYRPAR” here?
Answer: Its value is “not soluble”.

Question: For “MGSDKIHHHHHHMLTMIQQYHIKHLNFHKGKSLRSIAEETGHDFRTVKKYAEQTDFNEIRKPKRGRPSKLDPVKPIIDAWLKEDLNRPVKQRHTARRIYDRLCDEHQDIFNACERTVRTYVSARKKELYGEEEGYLPLEHPAGEAQVDFGEIVMIEQGQKVKGYELILSLPYSNAGYPQIFRGQNQECLLTGLKDIF”, which “soluble on expression in E. coli” value is on record?
Answer: Its value is “not soluble”.

Question: For “MRVYAIADPHLSRVHPKPMTVFGAGWEGHPEAFFRGWREVVGEEDLVVVPGDISWAMRLSEAIPDLLDLARLPGRKVLLKGNHDYWWPSISRLRAALPPGMYALQNDALVVDGVAVAGTRGWQYPPQTPEDEKVFAREVERLKLSLKALEGQPYRHLVVAFHFPPFGPGGEASPLLELAAGAHPQAIVYGHLHGADPAKLPQSYRGIPLHLVAADALRFRPKLVLEAD”, which “soluble on expression in E. coli” value is on record?
Answer: The value was “soluble”.

Question: With “MAHHHHHHMIVKVFDYIYISNVYNANDIYELIKLNIGGVLTCFDCTCIEWCHHNDTNVTNKIFYKDIFVNTKKDLIKCDVPIITNKSVNSDIIGGTHQINNYYNEQNNNYHDNTYKEFTQTHKTNIDPSQIKSDHINEERKEHYDYIIFPSDIINNTQCNNNNLKDYIKSMLILKEDAYIDFDVIHMD” as the sequence, how does the “soluble on expression in E. coli” value read?
Answer: The value was “not soluble”.

Question: For “MGSDKIHHHHHHMMKTELHFKKSLLVSAVALATFALAGCANTAPQGKYVDGVHHVSGKGKKSDITLEVKVEQGNITQVKTLSHKETESLYLNAERLLPEIVSHNGHEGIDAISGATYSSNGILKAINDLPRIDGTKPEYQSVGARSQTGDDDFKLKWSIQPRLGLVKGDYYFEEARFRQGHMGSMLVVVDSNNLQDVILAEFNESGRPNYYTRLYQNVPKRMSEYNFSMGKKKGTAWVQSALTMEKLMMEKDQLTFELNPNYDPKLGNQLTEPNRLKYQGIDIVAGASNSIQQSMIPLTAKIHNRIQAGASDALFYQQAEKLLDEKGRWTGVTAMLRLVVDKNSHKITHAHYDEIFADEKKDIQDASLKAFYRQSKYDSINYVEPARIGFNVMIDALSLHLKEGGSLFNINDLPAAGDTGSYAQTGFTKRSDAWDNYLRLAGILYKQMRADGVINEHALPAQ”, which “soluble on expression in E. coli” value is on record?
Answer: Its value is “not soluble”.

Question: Which “soluble on expression in E. coli” value does the source give for “LVKVKREIIRMDHPAIRPEAGRAPAVDAATLRRWLAQGRDDQGRELVMLDTRNAFEVEVGTFRGALDWRIERFTQFPQAVRDNQAALAGKTVVSFCTGGIRCEKAAIYMAEAGIEHVYQLEGGILKYFEETDGAGFDGACFVFDERVALDAALAPQ” here?
Answer: Its value is “not soluble”.

Question: Which “soluble on expression in E. coli” value does the source give for “MAQRRESLNMGEFAEEAIIVEEVAAPKRVNHFIEANTQEVTLQHLQQDCIIPSFASMEETISHQSFIGAVVDAAKDYFHGEQFDMPEIRISHPINGRIPSALGKKASELTDEEKTLFYQRMCFCFEIPSIVHDEYGNRLALSIGGVRAYNEINLYSKKSVERFKIFIGFRNRVCSNLMLTTDGLQDKIEVLSIQELYAAALNLFHAYNPSKDLHLLRTLGQMSISTSEFCQIIGRMRLYQALTPNQQKRLPRLLLGDSQINAACRAFVSDANFKSTGDSITGWQLLNLLNGSVKSSYIDNFLERNLNCTEFVQGIQRAKLGDSEYAWFLG” here?
Answer: The value was “not soluble”.

Question: For “MRGSHHHHHHTDPALRASIKNLPADYLLAAQQGDIDKVKTCLALGVDINTCDRQGKTAITLASLYQQYACVQALIDAGADINKQDHTCLNPFLISCLNDDLTLLRIILPAKPDLNCVTRFGGVGLTPACEKGHLSIVKELLAHTEINVNQTNHVGWTPLLEAIVLNDGGIKQQAIVQLLLEHGASPHLTDKYGKTPLELARERGFEEIAQLLIAAGAGLCGR”, which “soluble on expression in E. coli” value is on record?
Answer: The value was “soluble”.

Question: For “MAVIYKTTAHASAGREGVVQTVDGFTVSLAFPKPGATHQDKNNPEQLFASAYAGCFSQAVRVVLQQHQLQLATQPIVGVSVELHDQDGLFHIKAGVELAITGVDQTTAQTVITAAHAMCPFSRLIKPENFLGLTLNGAKL”, which “soluble on expression in E. coli” value is on record?
Answer: The value was “soluble”.

Question: With “MTFYYQRLAQQIAHKIYQQQLLPQQKLSSLRDFATQHQVSISTAKSCYEWLEAQGLIYVKPKSGYFVKPKSNVSRLPVSPEFESMPRQVSNLMLQNQIQEASIQNHLIPFGAIQLSPELVPIDGLRRSIQRALKYCKPEDFLYCEKQGHLRLRQALSEHWREDGIYVAPNDIFITNGCMPALSLLIQQLSREGDSILIPTPTFNGQLQLLAGLNRHIIEIPADHTGIDLLRLEQAMQMHQPKLCLLTANYQNPLGYCLADEDKQKIAQLAARYQCIILEDDIYAECSHHGQRPRPIKYWDEAGYVIWVSSVSKSLSSAYRVGWFCIGSQLEPMRPRFLSHNMTVNTPLQLALADFIFSRGYRRHLNQLHPRLMQQVEAYRDVILNAFAPLTIGLSQPQGGYALWLELPDNINSVTLYEVAQQQGISIVPGTVFGEDQRYGHFIRLSVGHALQNEHHAAIIFLADWVKQHC” as the sequence, how does the “soluble on expression in E. coli” value read?
Answer: The value was “not soluble”.

Question: With “MKQRDSLDEKRRQLTYFTSCNAGTCQCRGFRPVLNHEDETVERRATRAERENDFAPMTRDLETLGSEEIIECRTCGHSISFHAEPLKYLSQEDLDTYTDQISDLQTCCSELSEIDPSHESLQTLYITMQILLKSLRTLTPVDVPFIGKPNFEPESLSPYILVKKFIASRPVDNAEKQRLAEIGTLFLTEMNHWKLEGFQSLADKLNVPLEQGKYRMMYVRMDYYVNMPAKYVSFKQFQTVDIFGEKFTTTFCNYLINVLNTGNYTPFGLSESDLEENSEDLITFATDLRRYLETEDPQSTSTTNRRKDSISTEDVILKYVKRKKPTDHSESSSPRELSTSPVEEPRRRKKEPSSSAKKSPETEESMALLRSLIRAIKFEGDLDAMEPKTKVEFEALNTEVSRGLSALQEEESGLIEFRVIGNDLDPFQHHEQLVHLVELQNLFGAQLPKMPKEYVTRLIFDSRHQNMVILKRDMGVIGGICFRTFPSRGFVEIVFCAITAMEQVKGYGTHLMNHCKDYMIKNKIYHMLTYADEFAIGYFTKQGFSEKLEINDTVYQGWIKEYEGATLMGCHLHPQISYTKFPDFSKGIQALHCGYKSENGAESRGKVFGGLEHLFRESSPQLLELRKVPGTDSLKMHKKSCYHLDERDDSLDSKIGAILKKLTADKNAWPFASPVDVKEVPEYYDHIKHPIDFKTMQEKLKRKAYTHQHLFIADLNRLFQNCYVFNGAEAVYYKYGYKLNELALKLLKTSFPESSWYPELPEQKPLC” as the sequence, how does the “soluble on expression in E. coli” value read?
Answer: The value was “not soluble”.

Question: With “MKINQMKKDQLFEGFYLIKSAEVRKTRAGKDFISLTFQDDTGEISGNLWDAQPYNVEEFTAGKVVFMKGRREVYNGTPQVNQITLRNVRPGEPNDPKDFKEKAPVSVTEVRDYLEQMLFKIENATWQRIVRALYRKYDKEFYTYPAAKTNHHAFESGLAYHTATMVRLADSIGDIYPDLNKSLLFAGIMLHDLAKVIELTGPDNTEYTVRGNLIGHISLINEEITKVISELQIDDTKEEVIVLRHVILSHHGQLEYGSPVRPRIMEAEIIHMIDNIDANMMMMTTALSRVSEGEMTNRIFAMDNRSFYKPNY” as the sequence, how does the “soluble on expression in E. coli” value read?
Answer: The value was “not soluble”.

Question: With “MSLQHNGHSYTVEGLINDSTLNGQTLYISRYDDGMKVDSTQVTNGQFKFTGKADIPCFCRIDAGREYANFILEGGNIQVNVLTHNDPKGTPMNEEYTHISDKTSELVTELRKRHAAIEQQTEDKSEQLRLKKEYADTYWHPTYTRLYKDMFMKNPDNALGEFAIRELAMCALPEEMDTIFAASGPWLKSLSVYHRIEKQFQGMKATAVGQKFTDFSGKTIDGAASSLSDFVGKGQYTLVDFWASWCGPCRSESPHIAELYNTYKDKGLTVLGVAVWDKPENTKKAIKELNIDWPQIIDTGMTPMDLYGVKGIPFILLFGPDGTIIARDLRGEGMKNKVAEVLNNKEGHHHHHH” as the sequence, how does the “soluble on expression in E. coli” value read?
Answer: Its value is “soluble”.

Question: For “WLEPYLAGVTSVKGLQSVSVLQALKHYLGWELSQQLDEWLPTHHLLPTGNHKKIRYQLGMEPTLSVRMQEVFGEQSSPRVAKGTRAVVMELLSPAQRPLQVTRDLASFWAGAYKEVQKEMKGRYPKHVWPDDPANHVATSKTKRQLNA”, which “soluble on expression in E. coli” value is on record?
Answer: Its value is “not soluble”.

Question: For “MGSDKIHHHHHHMTTATQSSAPGVNVDQAEVEKFSALAARWWDPESEFKPLHAINPLRLGWIQETAGSLSGKRVLDMGCGGGILSESMAVAGAQVTGIDLAEKSLKIARLHGLESGVKVDYRAVPVEELAAEQPGQYDVVTCMEMLEHVPDPASVVRACAALAKPGGWVFFSTLNRNPKSFLFAIVGAEYVLRLLPRGTHSYDSFIKPSELATSARQAGLEPTGMRGMEYNPITQVYSLSANTSVNYLMSTRK”, which “soluble on expression in E. coli” value is on record?
Answer: Its value is “not soluble”.

Question: Which “soluble on expression in E. coli” value does the source give for “MTLFDRKTFDRVLGEWPGVRFVDQWDSHVAKVGDKVFAVLGEREDWRLVVKCSEESFEILTSLEGIAQAPYFAKRKWISIGDHSPLEQEELEHYVRRSYELVAAGLTKKLRGELGIVIDNAPRL” here?
Answer: The value was “soluble”.

Question: For “MGSDKIHHHHHHMDYELLKTFICLAKLKNFTKTAEQLHVVQSTITSRIKHLEHTIGETLFIRTNKKVLLTGAGEIFLPYAKQLLSIQETAISRLHTLELFKDTLNIGAVHSIYDCHVQNMILKYMQRNKKIAIKITIEHSEELIQMLHDNQLDVTFTYLDIKSSQFICNPFYTDKIILVTGSQNNYNERGITNDELRSLPLLSSAILTEEFQEWFYSIFPRNYIYPLDININSNIVTFLKDGIGFSFMPESAAKNFIEEGSLIEVKLLESTPPSMKSYVLLNKQRINSEAVHSWLNEFPTLTST”, which “soluble on expression in E. coli” value is on record?
Answer: Its value is “not soluble”.

Question: For “MSLTTETRSLYSQLPAIDRLLRDSSFLSLRDTYGHTRVVELLRQMLDEAREVIRGSQTLPAWCENWAQEVDARLTKEAQSALRPVINLTGTVLHTNLGRALQAEAAVEAVAQAMRSPVTLEYDLDDAGRGHRDRALAQLLCRITGAEDACIVNNNAAAVLLMLAATASGKEVVVSRGELVEIGGAFRIPDVMRQAGCTLHEVGTTNRTHANDYRQAVNENTALLMKVHTSNYSIQGFTKAIDEAELVALGKELDVPVVTDLGSGSLVDLSQYGLPKEPMPQELIAAGVSLVSFSGDKLLGGPQAGIIVGKKEMIARLQSHPLKRALRADKMTLAALEATLRLYLHPEALSEKLPTLRLLTRSAEVIQIQAQRLQAPLAAHYGAEFAVQVMPCLSQIGSGSLPVDRLPSAALTFTPHDGRGSHLESLAARWRELPVPVIGRIYDGRLWLDLRCLEDEQRFLEMLLKEGGSHHHHHH”, which “soluble on expression in E. coli” value is on record?
Answer: Its value is “soluble”.

Question: With “MSLMEDVGKEMSKIIQKRDINERYEELVNEVLKDQDVQAFIQANRERLTDEDIRKSYAKLYEFVQEKKKFQVNDPAMIAPGYEPRLMLNFHYIDVTYVPTADLIARQKEEEIRNRVRAMDMPKDVREANLRDFDPSSQGRAKALAEAMQFLREYPATPKEFHKGLYLQGPFGVGKSFLLGAMANALAERGFTTTIVHFPTFTVEMKQAIGRDQVGEKLDAVKKSPILMIDDIGAESMTSWIRDDVLSVILQYRMQEQLVTFFSSNLDLKALEEHLTVTQRGEQEPLKARRIMERVRYLSKEITMTGNDRRNGEGHHHHHH” as the sequence, how does the “soluble on expression in E. coli” value read?
Answer: Its value is “soluble”.
